Laboratory results reported in publication PMC4109716.
Numbering of substitutions follows the chain as printed. Like-named read-outs stand apart in the source and are kept apart here.

Assays:
Assay in all cases: smFRET
POT1 [1] = target: T1, POT1 (Homo sapiens, UniProt Q9NUX5 1-634)
T1 sequence: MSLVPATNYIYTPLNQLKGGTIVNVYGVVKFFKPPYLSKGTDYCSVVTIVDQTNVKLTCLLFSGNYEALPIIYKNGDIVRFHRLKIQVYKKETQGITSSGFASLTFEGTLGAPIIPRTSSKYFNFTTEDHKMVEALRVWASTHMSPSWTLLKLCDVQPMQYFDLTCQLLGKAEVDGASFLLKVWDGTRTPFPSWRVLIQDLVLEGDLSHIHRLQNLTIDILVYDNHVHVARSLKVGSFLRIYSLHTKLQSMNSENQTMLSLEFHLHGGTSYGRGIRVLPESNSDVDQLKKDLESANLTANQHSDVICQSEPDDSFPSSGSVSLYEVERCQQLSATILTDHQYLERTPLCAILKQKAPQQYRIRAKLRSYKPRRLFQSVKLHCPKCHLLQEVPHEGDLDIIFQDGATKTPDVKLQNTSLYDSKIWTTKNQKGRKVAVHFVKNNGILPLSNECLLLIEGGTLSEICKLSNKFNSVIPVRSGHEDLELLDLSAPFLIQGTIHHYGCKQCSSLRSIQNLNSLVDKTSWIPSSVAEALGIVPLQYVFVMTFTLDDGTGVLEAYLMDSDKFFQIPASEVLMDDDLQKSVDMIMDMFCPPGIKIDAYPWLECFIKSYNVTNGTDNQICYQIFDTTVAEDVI

POT1;TPP1N [2] = target: T2, POT1;TPP1N (Homo sapiens;Homo sapiens?, UniProt Q9NUX5;Q96AP0 1-634;3-248, |)
POT1 [3] = target: T1, POT1; remark: listed apart in the source
POT1;TPP1N [4] = target: T2, POT1;TPP1N; remark: listed apart in the source
POT1 [5] = target: T1, POT1; remark: listed apart in the source
POT1;TPP1N-Alexa 647 [6] = target: T3, POT1;TPP1N-Alexa 647 (Homo sapiens;Homo sapiens?, UniProt Q9NUX5;Q96AP0 1-634;3-248, |)
POT1;TPP1N-Alexa 647 [7] = target: T3, POT1;TPP1N-Alexa 647; remark: listed apart in the source
POT1 [8] = target: T1, POT1; remark: listed apart in the source
POT1 [9] = target: T1, POT1; remark: listed apart in the source
POT1;TPP1N-Alexa 647 [10] = target: T3, POT1;TPP1N-Alexa 647; remark: listed apart in the source
POT1 [11] = target: T1, POT1; remark: listed apart in the source

T3 sequence (Q96AP0 3-248, one chain of several): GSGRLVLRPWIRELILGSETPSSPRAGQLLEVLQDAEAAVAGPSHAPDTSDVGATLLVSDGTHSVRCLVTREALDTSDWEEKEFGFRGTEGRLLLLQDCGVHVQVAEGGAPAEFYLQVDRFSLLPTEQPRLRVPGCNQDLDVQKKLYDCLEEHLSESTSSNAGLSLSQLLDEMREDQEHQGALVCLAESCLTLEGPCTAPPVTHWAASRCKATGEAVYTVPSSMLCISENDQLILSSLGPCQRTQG
T2 sequence (Q96AP0 3-248, one chain of several): as above

B1: G4 (24 nt FRET) (mixed)
DNA 1: TGGCGACGGCAGCGAGGCTTAGGGTTAGGGTTAGGGTTAGGG
DNA 2: GCCTCGCTGCCGTCGCCA
B1: binds (POT1 [1]); binds (POT1;TPP1N [2]).

B2: G4 (18 nt Cy3) (mixed)
DNA 1: B1 DNA 1
DNA 2: GCCTCGCTGCCGTCGCCA
modifications: internal Cy3 in strand 1 after nt 36
B2: binds (POT1 [3]); binds (POT1;TPP1N [4]).

B3: G2-mut2 (FRET with Cy5 stem) (mixed)
DNA 1: B1 DNA 1 with A33T, G36C, A39T, G42C
DNA 2: GCCTCGCTGCCGTCGCCA
B3: binds (POT1 [5]).

B4: G4 (6 nt Cy3) (mixed)
DNA 1: B1 DNA 1
DNA 2: GCCTCGCTGCCGTCGCCA
modifications: internal Cy3 in strand 1 after nt 24
B4: binds (POT1 [3]).

B5: G2-mut2 (unlabelled stem strand) (mixed)
DNA 1: B1 DNA 1 with A33T, G36C, A39T, G42C
DNA 2: GCCTCGCTGCCGTCGCCA
B5: binds (POT1;TPP1N-Alexa 647 [6]).

B6: G4 (3'Cy3, unlabelled stem strand) (mixed)
DNA 1: B1 DNA 1
DNA 2: GCCTCGCTGCCGTCGCCA
B6: binds (POT1;TPP1N-Alexa 647 [7]).

B7: G2 (mixed)
DNA 1: TGGCGACGGCAGCGAGGCTTAGGGTTAGGG
DNA 2: GCCTCGCTGCCGTCGCCA
B7: binds (POT1 [8]).

B8: G3 (mixed)
DNA 1: TGGCGACGGCAGCGAGGCTTAGGGTTAGGGTTAGGG
DNA 2: GCCTCGCTGCCGTCGCCA
B8: binds (POT1 [9]).

B9: G2-mut4 (unlabelled stem strand) (mixed)
DNA 1: TGGCGACGGCAGCGAGGCTTAGGGTTAGGGTTTGGCTTTGGCTTTGGCTTTGGC
DNA 2: GCCTCGCTGCCGTCGCCA
B9: binds (POT1;TPP1N-Alexa 647 [10]).

B10: OB2 mutant (mixed)
DNA 1: TGGCGACGGCAGCGAGGCTTAGGGTTTT
DNA 2: GCCTCGCTGCCGTCGCCA
B10: binds (POT1 [11]).
